Results taken from patent US20140274782A1 (Stanford University, published 2014).

Assays:
[1] = target: T1, RHBDD1-rhomboid domain containing 1 (RHBDD1) (human, UniProt Q8TEB9 1-315, limits assumed); assay: ProtoArray, GST-treated control array;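 note: human protein microarray (about 9500 recombinant proteins) incubated overnight with GST alone plus SAM cofactor as the negative control for G9a SET domain methylation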
T1 sequence (looked up): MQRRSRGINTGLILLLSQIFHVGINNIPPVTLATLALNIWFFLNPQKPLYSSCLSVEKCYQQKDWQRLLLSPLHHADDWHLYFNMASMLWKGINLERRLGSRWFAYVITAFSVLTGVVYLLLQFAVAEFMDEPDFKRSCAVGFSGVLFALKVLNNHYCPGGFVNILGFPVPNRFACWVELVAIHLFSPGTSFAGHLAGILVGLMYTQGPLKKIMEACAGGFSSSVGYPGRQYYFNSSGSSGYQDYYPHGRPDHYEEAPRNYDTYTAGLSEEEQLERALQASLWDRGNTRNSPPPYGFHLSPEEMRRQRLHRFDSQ

[2] = target: T2, KCTD7-potassium channel tetramerisation domain containing 7 (KCTD7) (human, UniProt Q96MP8 1-289, limits assumed); assay: ProtoArray, GST-treated control array;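 note: human protein microarray (about 9500 recombinant proteins) incubated overnight with GST alone plus SAM cofactor as the negative control for G9a SET domain methylation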
T2 sequence (looked up): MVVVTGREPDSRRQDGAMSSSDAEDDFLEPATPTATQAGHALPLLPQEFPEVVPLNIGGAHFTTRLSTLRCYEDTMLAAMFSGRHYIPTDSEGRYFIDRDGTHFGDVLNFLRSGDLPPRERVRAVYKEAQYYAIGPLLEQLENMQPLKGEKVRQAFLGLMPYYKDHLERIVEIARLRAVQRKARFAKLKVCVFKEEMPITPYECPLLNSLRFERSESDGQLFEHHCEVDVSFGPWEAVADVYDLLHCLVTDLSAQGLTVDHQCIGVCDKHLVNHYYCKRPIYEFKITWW

[3] = target: T3, MOBKL3-Mps one binder kinase activator-like 3 (human, UniProt Q9Y3A3 1-225, limits assumed); assay: ProtoArray, GST-treated control array;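 note: human protein microarray (about 9500 recombinant proteins) incubated overnight with GST alone plus SAM cofactor as the negative control for G9a SET domain methylation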
T3 sequence (looked up): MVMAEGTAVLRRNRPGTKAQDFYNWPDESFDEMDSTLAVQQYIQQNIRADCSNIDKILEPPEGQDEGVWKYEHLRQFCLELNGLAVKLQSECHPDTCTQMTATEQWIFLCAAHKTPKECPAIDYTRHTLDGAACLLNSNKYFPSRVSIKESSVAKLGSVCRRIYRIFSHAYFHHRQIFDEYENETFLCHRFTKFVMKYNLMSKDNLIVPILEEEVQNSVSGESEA

[4] = target: C10orf83-chromosome 10 open reading frame 83 (C10orf83) (human, UniProt Q8NDC4 1-146, limits assumed); assay: ProtoArray, GST-treated control array;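 note: human protein microarray (about 9500 recombinant proteins) incubated overnight with GST alone plus SAM cofactor as the negative control for G9a SET domain methylation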
[5] = target: T4, HIC2-Hypermethylated in cancer 2 protein (human, UniProt Q96JB3 1-615, limits assumed); assay: ProtoArray, GST-treated control array
T4 sequence (looked up): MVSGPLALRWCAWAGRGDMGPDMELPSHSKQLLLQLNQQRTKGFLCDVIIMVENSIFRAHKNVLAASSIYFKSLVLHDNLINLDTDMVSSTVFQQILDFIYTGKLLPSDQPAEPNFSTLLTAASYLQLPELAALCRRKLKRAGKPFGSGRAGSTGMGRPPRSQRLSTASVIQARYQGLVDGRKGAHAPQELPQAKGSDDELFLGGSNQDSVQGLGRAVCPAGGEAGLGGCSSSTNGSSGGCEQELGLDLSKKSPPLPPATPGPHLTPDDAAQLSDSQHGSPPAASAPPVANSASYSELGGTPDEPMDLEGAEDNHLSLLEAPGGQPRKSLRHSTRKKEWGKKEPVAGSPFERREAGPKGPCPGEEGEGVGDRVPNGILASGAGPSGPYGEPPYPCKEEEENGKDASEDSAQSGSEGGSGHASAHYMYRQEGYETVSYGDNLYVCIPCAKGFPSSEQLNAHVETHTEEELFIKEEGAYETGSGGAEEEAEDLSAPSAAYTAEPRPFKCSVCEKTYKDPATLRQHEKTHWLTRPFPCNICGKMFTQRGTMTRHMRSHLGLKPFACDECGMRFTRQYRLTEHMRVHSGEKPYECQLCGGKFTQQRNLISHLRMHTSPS

[6] = target: T5, LYRM7-Lyrm7 homolog (mouse) (LYRM7) (human, UniProt Q5U5X0 1-104); assay: ProtoArray, GST-treated control array
T5 sequence (looked up): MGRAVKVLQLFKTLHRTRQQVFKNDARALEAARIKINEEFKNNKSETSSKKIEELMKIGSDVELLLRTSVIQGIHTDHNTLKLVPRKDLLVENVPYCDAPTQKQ

[7] = target: T6, RAB33B-RAB33B, member RAS oncogene family (RAB33B) (human, UniProt Q9H082 1-229); assay: ProtoArray, GST-treated control array
T6 sequence (looked up): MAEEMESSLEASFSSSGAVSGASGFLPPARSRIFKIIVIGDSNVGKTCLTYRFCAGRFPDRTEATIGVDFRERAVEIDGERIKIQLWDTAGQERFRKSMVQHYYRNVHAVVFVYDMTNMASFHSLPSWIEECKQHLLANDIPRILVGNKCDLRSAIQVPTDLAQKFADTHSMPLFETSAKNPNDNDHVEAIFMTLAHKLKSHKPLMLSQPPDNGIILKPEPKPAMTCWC

[8] = target: CDC2-cell division cycle 2, G1 to S and G2 to M (CDC2), transcript variant 1 (human, UniProt P06493 1-297); assay: ProtoArray, GST-treated control array
[9] = target: FTH1-ferritin, heavy polypeptide 1 (FTH1) (human, UniProt P02794 1-183); assay: ProtoArray, GST-treated control array
[10] = target: LOC145788, G9a-methylated (human); assay: ProtoArray, G9a array SNR minus GST array SNR
Description: (§1) Briefly, a ProtoArray (Invitrogen, version 5.0) was incubated overnight with 50 μg of GST or recombinant GSTtagged G9a SET domain and the cofactor SAM.
(§2) Arrays were analyzed using GenePix Pro 6.1 software (Molecular Devices) and feature values were assigned to proteins using the array list provided by Invitrogen. We designated the following criteria for “hits”: GST array signal-to-noise ratio (SNR) less than or equal to 1.5, G9a array SNR greater than or equal to 10, and a difference between the G9a array SNR and the GST array SNR of greater than or equal to 12. Hits were individually visually validated. Proteins were removed from the list of potential substrates if irregular array features appeared to interfere with the array spots or SNR calculations.
(§3) Protein arrays bearing almost 9500 recombinant human proteins were methylated using GST-tagged recombinant G9a SET domain or GST alone as a control as shown in FIG. 4. […] Results were filtered for proteins scoring a GST array signal-to-noise ratio (SNR) less than or equal to 1.5, a G9a array SNR greater to or equal to 10, and a difference between the G9a and GST SNRs of greater than or equal to 12. Subsequent proteins were individually inspected for irregular array features.

[11] = target: cDNA clone IMAGE:4623222 product, G9a-methylated (human); assay: ProtoArray, G9a array SNR minus GST array SNR
Description: as §1, §2, §3

MGC4473, G9a-methylated = MGC4473, G9a-methylated (human); assay: ProtoArray, G9a array SNR minus GST array SNR
Description: as §1, §2, §3

[12] = target: LOC400500, G9a-methylated (human); assay: ProtoArray, G9a array SNR minus GST array SNR
Description: as §1, §2, §3

Chain of C10orf83-chromosome 10 open reading frame 83 (C10orf83) (Q8NDC4 whole entry, the tested form may be a part): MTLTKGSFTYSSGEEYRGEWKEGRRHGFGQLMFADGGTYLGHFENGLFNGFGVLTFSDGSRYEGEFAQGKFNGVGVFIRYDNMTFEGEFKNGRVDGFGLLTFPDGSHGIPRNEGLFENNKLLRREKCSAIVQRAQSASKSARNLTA
Chain of CDC2-cell division cycle 2, G1 to S and G2 to M (CDC2), transcript variant 1 (P06493 whole entry, change not shown): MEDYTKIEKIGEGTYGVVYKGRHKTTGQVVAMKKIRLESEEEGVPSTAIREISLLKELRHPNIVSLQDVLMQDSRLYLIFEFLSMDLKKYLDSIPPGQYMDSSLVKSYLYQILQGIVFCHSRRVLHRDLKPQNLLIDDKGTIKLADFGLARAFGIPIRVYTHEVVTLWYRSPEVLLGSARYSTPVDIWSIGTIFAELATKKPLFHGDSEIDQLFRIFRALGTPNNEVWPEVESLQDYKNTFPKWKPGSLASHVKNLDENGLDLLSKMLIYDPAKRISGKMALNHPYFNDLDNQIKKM
Chain of FTH1-ferritin, heavy polypeptide 1 (FTH1) (P02794 whole entry): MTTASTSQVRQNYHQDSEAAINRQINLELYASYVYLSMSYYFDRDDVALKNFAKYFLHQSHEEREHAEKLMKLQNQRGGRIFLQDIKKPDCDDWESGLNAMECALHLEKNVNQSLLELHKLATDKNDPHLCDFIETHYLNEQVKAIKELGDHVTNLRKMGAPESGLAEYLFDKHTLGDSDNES

B1: 3× Flag-3×MBT (designed binder)
chain: EEWSSSQPATGEKKECWSWESYLEEQKAITAPVSLFQDSQAVTHNKNGFKLGMKLEGIDPQHPSMYFILTVAEVCGYRLRLHFDGYSECHDFWVNANSPDIHPAGWFEKTGHKLQPPKGYKEEEFSWSQYLRSTRAQAAPKHLFVSQSHSPPPLGFQVGMKLEAVDRMNPSLVCVASVTDVVDSRFLVHFDNWDDTYDYWCDPSSPYIHPVGWCQKQGKPLTPPQDYPDPDNFCWEKYLEETGASAVPTWAFKVRPPHSFLVNMKLEAVDRRNPALIRVASVEDVEDHRIKIHFDGWSHGYDFWIDADHPDIHPAGWCSKTGHPLQPPLGPREPSSASPGG
notes: also called Flag-tagged 3×MBT; 3xFlag-3xMBT; not shown: made by PreScission cleavage of GST-3× Flag-3×MBT
With B1 the “GST Average SNR” value [1] was -0.11, the “GST Average SNR” value [2] was 1.09 and the “GST Average SNR” value [3] was -0.451. The “GST Average SNR” value [4] was 0.742, the “GST Average SNR” value [5] was 0.588 and the “GST Average SNR” value [6] was 0.278. The “GST Average SNR” value [7] was 0.0035, the “GST Average SNR” value [8] was -0.696 and the “GST Average SNR” value [9] was -0.802. For the same binder, the G9a-GST [10] was 13.8, the G9a-GST [11] was 17.8 and the G9a-GST (MGC4473, G9a-methylated) was 21.7. For the same binder, the G9a-GST [12] was 29.1.
